The results in this text go back to PMC3049778.

The target in this test is GST-H486R optineurin (human) (UniProt Q96CV9). Nature of the test: pull-down; GST-optineurin or GST-H486R on glutathione agarose beads incubated 6-8 hours with lysates of HeLa cells transfected with HA-CYLD; anti-HA immunoblot. A general note: In western blotting, separated proteins are transferred to a membrane and probed.
UniProt Q96CV9, sequence (Q96CV9 whole entry H486R): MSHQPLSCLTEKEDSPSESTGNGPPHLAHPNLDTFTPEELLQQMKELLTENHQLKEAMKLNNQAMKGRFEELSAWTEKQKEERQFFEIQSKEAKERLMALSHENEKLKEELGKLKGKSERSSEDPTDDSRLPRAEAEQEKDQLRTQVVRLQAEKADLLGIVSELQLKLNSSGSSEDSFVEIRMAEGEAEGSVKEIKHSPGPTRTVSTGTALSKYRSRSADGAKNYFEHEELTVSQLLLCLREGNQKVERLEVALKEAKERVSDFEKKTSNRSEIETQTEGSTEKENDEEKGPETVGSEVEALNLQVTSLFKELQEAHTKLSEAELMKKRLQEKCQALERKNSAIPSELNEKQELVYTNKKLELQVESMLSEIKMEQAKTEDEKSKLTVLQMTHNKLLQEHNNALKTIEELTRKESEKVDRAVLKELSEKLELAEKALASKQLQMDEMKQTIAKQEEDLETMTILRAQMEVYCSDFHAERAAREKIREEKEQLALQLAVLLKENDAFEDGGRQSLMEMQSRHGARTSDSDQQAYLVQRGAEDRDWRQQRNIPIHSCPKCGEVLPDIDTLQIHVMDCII

“HA-tagged CYLD (CYLD cDNA obtained in the yeast two-hybrid screen, in pCDNA3.1-HA) (from UniProt Q9NQC7 403-956) (domain or fragment)” registered a fold less binding than wild type optineurin of 5 fold.
